From US7005258B1, “Cdc25 genes, encoded products and uses thereof” (The National Institutes of Health, priority 1991, dated 2006)
Values belong to the molecule of their own block, whether it stands above or below them.

Experiments:
[1] = molecular target: T1, human cdc25 A (GST fusion protein) (Homo sapiens, UniProt P30304); assay: cdc25 A tyrosine phosphatase assay with 32P-RCML substrate; type: biochemical
T1 construct: A plasmid containing the entire open reading frame of human cdc25 A was digested with Ncol (at amino acid 1); made in house; host or cells: E. coli (bacteria)
T1 sequence (P30304 1-524): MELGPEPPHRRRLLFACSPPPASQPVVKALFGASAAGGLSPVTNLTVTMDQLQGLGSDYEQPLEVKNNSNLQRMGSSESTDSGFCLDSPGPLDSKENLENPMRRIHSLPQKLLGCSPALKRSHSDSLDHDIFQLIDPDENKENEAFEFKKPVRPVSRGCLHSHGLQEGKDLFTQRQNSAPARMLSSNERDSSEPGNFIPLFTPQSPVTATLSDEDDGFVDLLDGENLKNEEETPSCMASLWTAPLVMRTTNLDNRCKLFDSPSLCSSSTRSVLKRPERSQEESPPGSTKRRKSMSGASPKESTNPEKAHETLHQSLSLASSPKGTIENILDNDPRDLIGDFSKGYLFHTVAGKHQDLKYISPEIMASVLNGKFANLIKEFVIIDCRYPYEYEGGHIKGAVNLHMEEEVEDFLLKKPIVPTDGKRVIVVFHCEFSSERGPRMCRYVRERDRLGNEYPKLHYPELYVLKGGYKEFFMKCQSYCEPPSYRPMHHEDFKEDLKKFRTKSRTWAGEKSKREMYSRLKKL
Method: A plasmid containing the entire open reading frame of human cdc25 A was digested with Ncol (at amino acid 1), blunt ended with T4 DNA polymerase, heat inactivated, extracted with phenolchlorophorm, ethanol precipitated and digested with EcoRI. The resultant 2.0 kb fragment was gel-purified and ligated into pGEX-2T Smal/EcoRI digested vector. Resultant plasmid upon transformation into bacteria gave rise to a 90 kd IPTG-inducible protein. […] Absorbance at 410 nm was determined using a molar absorptivity of 1.78×10^4M^−1 cm^−1 to calculate the concentration of the p-nitrophenolate ion generated in the assay. […]
Reduced carboxamidomethylated and maleylated lysozyme (RCML) was obtained from N. Tonks in a ^32P-tyrosine phosphorylated form. […] Reactions ([…]) were performed at 30° C. for 10 or 20 min, and after addition of the fatty acid free bovine serum albumin (BSA, Sigma) to 2 mg/ml, proteins were precipitated with […] of 20% trichloroacetic acid, vortexed, incubated at −70° C. for 5 min, thawed, spun in an Eppendorf centrifuge for 5–10 min at the maximal speed and […] supernatants were counted in 2 ml Aquasol (NEN) for 10 min. […]

[2] = molecular target: T2, human cdc25 B (GST fusion protein) (Homo sapiens, UniProt P30305); assay: cdc25 B tyrosine phosphatase assay, pH 8.8; type: biochemical; details: p13 at 25 mM, in the presence or absence of cyclin B
T2 construct: An 2.4 kb Smal fragment from the p4×1.2 plasmid encoding amino acids 32–566 was subcloned; made in house; host or cells: E. coli (bacteria)
T2 sequence (P30305 32-566 isoform P30305-2): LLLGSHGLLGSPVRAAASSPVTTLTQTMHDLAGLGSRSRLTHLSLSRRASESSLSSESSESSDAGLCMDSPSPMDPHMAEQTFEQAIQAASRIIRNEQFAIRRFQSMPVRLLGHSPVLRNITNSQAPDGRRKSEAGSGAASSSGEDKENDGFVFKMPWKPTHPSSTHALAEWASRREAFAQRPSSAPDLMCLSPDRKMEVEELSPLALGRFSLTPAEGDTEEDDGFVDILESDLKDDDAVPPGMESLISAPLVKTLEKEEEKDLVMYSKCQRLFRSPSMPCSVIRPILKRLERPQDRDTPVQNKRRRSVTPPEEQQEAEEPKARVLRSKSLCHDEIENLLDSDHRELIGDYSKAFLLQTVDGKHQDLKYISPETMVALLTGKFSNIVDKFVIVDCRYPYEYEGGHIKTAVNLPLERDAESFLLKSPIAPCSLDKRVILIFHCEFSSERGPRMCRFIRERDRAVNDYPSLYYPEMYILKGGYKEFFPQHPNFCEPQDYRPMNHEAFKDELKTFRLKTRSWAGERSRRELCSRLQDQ

inhibition of the endogenous phosphatase activity of cdc25 A ([1]; p13 at 25 mM, without cyclin B1): 2–3 fold
effect on the activity of cdc25 B [2]: no effect
B1: p13: p13 protein encoded by the suc1 gene, an essential subunit of the cdc2 protein kinase (protein)
chain: MSKSGVPRLLTASERERLEPFIDQIHYSPRYADDEYEYRHVMLPKAMLKAIPTDYFNPETGTLRILQEEEWRGLGITQSLGWEMYEVHVPEPHILLFKREKDYQMKFSQQRGG

B2: D: murine cyclin D1 (CYL1) expressed as fusion protein with GST (protein)
chain: MEHQLLCCEVETIRRAYPDTNLLNDRVLRAMLKTEETCAPSVSYFKCVQKEIVPSMRKIVATWMLEVCEEQKCEEEVFPLAMNYLDRFLSLEPLKKSRLQLLGATCMFVASKMKETIPLTAEKLCIYTDNSIRPEELLQMELLLVNKLKWNLAAMTPHDFIEHFLSKMPEADENKQTIRKHAQTFVALCATDVKFISNPPSMVAAGSVVAAMQGLNLGSPNNFLSCYRTTHFLSRVIKCDPDCLRACQEQIEALLESSLRQAQQNVDPKATEEEGEVEEEAGLACTPTDVRDVDI
modifications: left off: a dimerising Fc or GST
effect on the endogenous phosphatase activity of cdc25 A ([1]; RCML substrate, 10 pmoles of cyclin and cdc25 protein): neither stimulatory nor inhibitory effect
